Among the data in patent publication US20140343256A1 (TECHNISCHE UNIVERSITAT MUNCHEN, published 2014) are binding result, molar excess of T2.5 over T2EC that abrogated the T2EC-P3CSK4 interaction (fold molar excess) and molar ratio (T2.5:T2ECD) required to reduce binding to 50% (molar ratio (T2.5:T2ECD)) values, retold here.

Ends that are not written are not given here. * marks the point of attachment. Palmitoyl = CCCCCCCCCCCCCCCC(=O)*

For experiment [1], the target named is T1, N-palmitoyl-S-(2,3-bis(palmitoyloxy)-(2R,S)-propyl)-(R)-cysteinyl-seryl-(lysyl)-3-lysine.
T1 construct: Synthetic bacterial lipopeptide analogue and TLR2 agonist, immobilised on the SPR chip; also called P3CSK4; tripalmitoyl-cysteinyl-seryl-(lysyl)3-lysine
T1 peptide: Palmitoyl-C(2,3‑bis(palmitoyloxy)‑(2R,S)‑propyl)SKKKK
The experiment in a line: SPR, antibody alone over immobilised P3CSK4. (Surface plasmon resonance follows binding to a sensor surface in real time, without labels.)

Experiment [2] has as its target recombinant TLR2ECD-Fc fusion protein (human IgGFc fused mouse TLR2ECD protein) (murine; human) (UniProt Q9QUN7). Kind of experiment: SPR competition: T2EC pre-incubated with T2.5, binding to immobilised P3CSK4.

recombinant TLR2ECD-Fc fusion protein (human IgGFc fused mouse TLR2ECD protein) (murine; human), sequence (Q9QUN7 25-587 limits assumed, form in doubt): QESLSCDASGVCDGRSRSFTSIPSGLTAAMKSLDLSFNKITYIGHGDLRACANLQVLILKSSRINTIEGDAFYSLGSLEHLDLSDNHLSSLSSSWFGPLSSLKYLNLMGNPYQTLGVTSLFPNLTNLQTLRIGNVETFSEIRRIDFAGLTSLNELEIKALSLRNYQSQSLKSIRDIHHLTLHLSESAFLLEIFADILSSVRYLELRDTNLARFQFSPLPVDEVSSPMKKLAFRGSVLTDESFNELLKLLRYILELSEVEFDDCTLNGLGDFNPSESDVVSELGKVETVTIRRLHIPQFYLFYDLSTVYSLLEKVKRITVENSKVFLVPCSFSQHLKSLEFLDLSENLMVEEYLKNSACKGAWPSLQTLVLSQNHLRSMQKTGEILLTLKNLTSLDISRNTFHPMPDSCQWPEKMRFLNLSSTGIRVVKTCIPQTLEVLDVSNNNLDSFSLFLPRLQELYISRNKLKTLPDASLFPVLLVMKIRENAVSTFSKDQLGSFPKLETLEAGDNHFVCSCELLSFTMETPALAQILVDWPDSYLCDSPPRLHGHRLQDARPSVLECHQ

B1: murine monoclonal antibody T2.5 (antibody, V domains shown)
VH: QVQLQQSGPELVNPGASVKLSCKASGFTFTTYGINWVKQGPGQGLEWIGWIYPRDGSTNFNENFKDKAALTVDTSSSTAYMELHSLTSEDSAVYFCARLTGGTFLDYWGQGTTLTVSS
VL: DIVLTQSPASLAVSLGQRATISCRASESVEYYGTSLMQWYQQKPGQPPKLLIFGASNVESGVPVRFSGSGSGTDFSLNIHPVEEDDIVMYFCQQSRKLPWTFGGGTKLEIKR
notes: also called mAb T2.5; native T2.5
B1: the binding result in experiment [1] was “no binding”. For the same molecule, in experiment [2], the molar excess of T2.5 over T2EC that abrogated the T2EC-P3CSK4 interaction (fold molar excess) amounted to 10 and the molar ratio (T2.5:T2ECD) required to reduce binding to 50% (molar ratio (T2.5:T2ECD)) stood at 3.3.
